Source: patent US20240182593A1 (YUHAN, published 2024)
Substitutions are numbered along the chain they refer to. In names and notes the source's numbering stands.

T1: human OX40 expressed on cells (human, UniProt P43489 29-277)
T1 construct: whole, on cells
T1 sequence (looked up): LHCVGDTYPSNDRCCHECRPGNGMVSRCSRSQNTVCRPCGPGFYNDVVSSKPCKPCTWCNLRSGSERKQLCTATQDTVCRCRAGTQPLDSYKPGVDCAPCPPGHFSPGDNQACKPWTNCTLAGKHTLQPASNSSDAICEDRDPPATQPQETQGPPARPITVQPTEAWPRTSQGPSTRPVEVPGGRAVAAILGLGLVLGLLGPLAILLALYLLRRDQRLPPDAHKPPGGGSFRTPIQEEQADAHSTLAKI

T2: human OX40 protein (Sino Biological, Cat. 10481-H08H) (human, UniProt P43489 29-216)
T2 construct: Bought recombinant protein; also called CD134; TNFRSF4
T2 sequence (looked up): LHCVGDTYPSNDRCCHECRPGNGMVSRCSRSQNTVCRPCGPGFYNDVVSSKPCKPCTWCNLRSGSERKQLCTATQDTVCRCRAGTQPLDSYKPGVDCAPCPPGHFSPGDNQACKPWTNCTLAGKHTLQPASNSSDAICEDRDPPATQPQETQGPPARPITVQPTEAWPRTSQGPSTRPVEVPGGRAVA

T3: mouse OX40 (ACRO, Cat. OX0-M5259) (mouse, UniProt P47741 20-211)
T3 construct: Bought protein; construct not described; also called mouse OX40 antigen
T3 sequence (looked up): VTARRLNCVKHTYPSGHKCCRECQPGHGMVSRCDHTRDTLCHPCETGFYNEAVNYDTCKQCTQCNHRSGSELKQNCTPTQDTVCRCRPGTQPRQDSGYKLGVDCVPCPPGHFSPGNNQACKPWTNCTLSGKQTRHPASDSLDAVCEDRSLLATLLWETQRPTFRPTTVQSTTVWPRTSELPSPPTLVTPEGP

B1: O15 (antibody, V domains shown)
VH: EVQLLESGGGLVQPGGSLRLSCAASGFTFSSYSMSWVRQAPGKGLEWVSMISSGGGSTYYADSVKGRFTISRDNSKNTLYLQMNSLRAEDTAVYYCARHWRYFDYWGQGTLVTVSS
VL: QSVLTQPPSASGTPGQRVTISCSGSSSNIGNNYVSWYQQLPGTAPKLLIYADSKRPSGVPDRFSGSKSGTSASLAISGLRSEDEADYYCGAWDSSLSGYVFGGGTKLTVLG
B2: O410 (antibody, human IgG1, lambda, V domains shown)
VH: B1 VH with S31D, S33Y, M50G, S52Y, G54D, G56S, S57R, T58K, R101S, Y102R
VL: B1 VL with N31S, S35T, G42R, A51Y, K54N, S94D
B3: O212 (antibody, V domains shown)
VH: EVQLLESGGGLVQPGGSLRLSCAASGFTFSDYAMSWVRQAPGKGLEWVSWIYYDSGSKYYADSVKGRFTISRDNSKNTLYLQMNSLRAEDTAVYYCAKGPGPNGQLAFDYWGQGTLVTVSS
VL: B1 VL with S23T, N31S, Y33S, D52N, K54H, S94Y
notes: also called O212 antibody
B4: O34 (antibody, V domains shown)
VH: B1 VH with S31D, S33Y, M50G, G54S, S57N, T58K, R101K, Y102R
VL: B1 VL with S23T, S25P, Y33D, D52N, K54N, P60S, A91T, S94Y, F101L
B5: O32 (antibody, V domains shown)
VH: B1 VH with M50V
VL: B1 VL
B6: O35 (antibody, V domains shown)
VH: B1 VH with S31D, M50A, G54D, H99R, R101Q, Y102T
VL: B1 VL with S23T, N31S, Y33A, A51H, K54H, R55P
B7: O31C (antibody, human IgG1, lambda, V domains shown)
VH: EVQLLESGGGLVQPGGSLRLSCAASGFTFSDYDMSWVRQAPGKGLEWVSSISPSSGSIYYADSVKGRFTISRDNSKNTLYLQMNSLRAEDTAVYYCAKDSIWCTNSRCYYDNAMDVWGQGTLVTVSS
VL: B1 VL with Y33A, A51S, K54N, A91S, S94Y, G98A
B8: OX40L-Fc protein (ACROBiosystems, Cat #. OX0-H5255) (Fc fusion, UniProt P23510 51-183, looked up)
chain: QVSHRYPRIQSIKVQFTEYKKEKGFILTSQKEDEIMKVQNNSVIINCDGFYLISLKGYFSQEVNISLHYQKDEEPLFQLKKVRSVNSLMVASLTYKDKVYLNVTTDNTSLDDFHVNGGELILIHQNPGEFCVL
notes: Bought; not shown: Fc part of the bought fusion protein

molecular target: T1, human OX40 expressed on cells; assay: flow cytometry on activated human CD4+ T cells
Procedure: (§1) The activity of the OX40-binding antibody prepared in Example 1.3 to bind to activated human T cells was tested as follows.
(§2) To induce OX40 expression, cells were activated for several days prior to the binding assay. Briefly, human CD4⁺ T cells ([…] Technologies) were cultured in the presence of IL-2 (Roche Life Sciences, Indianapolis, IN) and phytohemaglutinin-leucoagglutinin (PHA-L; Roche Life Sciences, Indianapolis, IN) at a concentration of 10 μg/ml for 2 days to activate the human CD4⁺ T cells. The activated CD4⁺ T cells were incubated with OX40-binding antibody serially diluted 5-fold from 1 μM. The bound antibody was detected with a fluorescently labeled anti-human IgG polyclonal secondary antibody, and cells were stained with FITC mouse anti-human CD134 (OX40) antibody clone ACT35 (BD Pharmingen) to detect CD4⁺ T cells expressing OX40. Fluorescence intensity of staining was measured using a BD FACSCantoII flow cytometry analyzer. Mean fluorescence intensity (MFI) of OX40-binding antibody staining was calculated using FlowJo software.

EC50 | Binder
2650 pM | B1
252 pM | B2
2170 pM | B3
182 pM | B4
102 pM | B5
1220 pM | B6

molecular target: T1, human OX40 expressed on cells; assay: flow cytometry on activated human CD4+ T cells, fitted MFI curve
Procedure: as §1, §2

Bottom | Top | Binder
7.36 | 102 | B1
1.04 | 95.9 | B2
5.53 | 99.4 | B3
5.77 | 99.9 | B4
7.69 | 102 | B5
-0.361 | 97.3 | B6

molecular target: T4, cynomolgus monkey OX40 (R&D, Cat. 10311-OX) (cynomolgus monkey); assay: ELISA, cynomolgus monkey OX40 coated at 0.5 ug/ml, serially diluted antibody, goat anti-human Fab secondary antibody, O.D. 450 nm
T4 construct: Bought protein; construct not described; also called Cynomolgus monkey OX40 antigen; Cyno OX40
Procedure: (§3) To determine the cross-species reactivity of anti-OX40 antibodies to mouse and cynomolgus (Cyno) monkey OX40, mouse OX40 (ACRO, Cat. OX0-M5259) and cynomolgus monkey OX40 (R&D, Cat. 10311-OX) antigens were coated on a 96-well plate at a concentration of 0.5 μg/ml, and the plate was incubated overnight at 4° C. After blocking using 3% BSA, serially diluted OX40 antibodies were treated and incubated for 1 hour at room temperature. Goat anti-human Fab (Jackson ImmunoResearch, Cat. 109-036-097) was diluted 1: 5000 and used as a secondary antibody for detection. Absorbance at 450 nm was read using a microplate reader (Molecular Device). To determine EC50 values for dose-dependent binding of OX40 binding antibodies in mice and cynomolgus monkeys, dose-response data were analyzed using a 4-parameter logistic model with GraphPad Prism.

EC50 (read off the curve) | Binder
~80 pM | B7
~20 pM | B2
~20 pM | B3
~20 pM | B4
~200 pM | B5

molecular target: T2, human OX40 protein (Sino Biological, …); assay: SPR (BIACORE T200), antibody captured on protein A chip, human OX40 as analyte, 1:1 model
Procedure: (§4) Quantitative analysis of antigen binding of the OX40-binding antibody prepared in Example 1.3 was performed using a BIACORE T200. The experimental conditions using surface plasmon resonance (SPR) were as follows: Protein A-immobilized CM5 chip (GE Healthcare) was used. 10 mM Glycine-HCl (pH 1.5) was used as the regeneration buffer, and HBS-EP (pH 7.4) was used as the running buffer, antibody dilution, and antigen dilution buffer. OX40-binding antibody was diluted with HBS-EP (pH 7.4), and human OX40 protein (Sino Biological, Cat. 10481-H08H) was serially diluted two-fold from 200 nM. Analysis was performed at all 11 concentrations (200, 100, 50, 25, 12.5, 6.25, 3.13, 1.56, 0.78, 0.39, 0 nM) including 0 nM. First, the OX40-binding antibody was captured on a chip immobilized with protein A (Thermo, Cat. 21184). In the association phase of human OX40 protein, the association time was set to 400-600 seconds and the flow rate was set to 30 μL/min. In the dissociation phase, the dissociation time was set to 400-2000 seconds and the flow rate was set to 30 μL/min. In the regeneration phase, the flow rate was set to 100 μL/min, and the flow time was set to 30 seconds. By using BIACORE Evaluation software, the data were analyzed and fitted in a 1:1 binding model.

Kd | koff | kon | Binder
122000 pM | 0.00238 s⁻¹ | – | B7
1240 pM | 4.17e-05 s⁻¹ | – | B2
24400 pM | 0.00167 s⁻¹ | 68300 M⁻¹ s⁻¹ | B3
2400 pM | 5.63e-05 s⁻¹ | – | B4
2050 pM | 4.13e-05 s⁻¹ | – | B5
19900 pM | 0.000203 s⁻¹ | – | B6

molecular target: T2, human OX40 protein (Sino Biological, …); assay: SPR (BIACORE T200), same test as for the antibodies (capture on protein A chip, human OX40 as analyte), 1:1 model
Procedure: as §4

koff | Binder
0.00119 s⁻¹ | B8

molecular target: T2, human OX40 protein (Sino Biological, …); assay: ELISA, human OX40 protein coated at 0.1 ug/ml, serially diluted antibody, HRP secondary antibody, O.D. 450 nm
Procedure: (§5) ELISA was performed to quantitatively analyze the antigen-binding activity of the OX40-binding antibody prepared in Example 1.3 to the antigen.
(§6) More specifically, the antigen human OX40 protein (Sino Biological, Cat. 10481-H08H) was added to a 96-well plate (Thermo Scientific, Cat. 469949) at a concentration of 0.1 μg/ml, and coated overnight at 4° C. Here, 200 μl of 3% BSA (Millipore, Cat. 820451) was placed in each well and blocked at room temperature for 2 hours. The OX40-binding antibody (Example 1.3) serially diluted 4-fold from 100 nM was added thereto and reacted at room temperature for 2 hours. After washing 4 times with 300 μl of PBS/Tween-20, HRP-bound secondary antibody (Abcam, Cat. Ab98624) was treated and reacted at room temperature for 1 hour. Then, it was washed 4 times with 300 μl of PBS/Tween-20. Following 100 μl of TMB was added thereto to develop color, 100 μl of 2 N H₂SO₄ was added to stop the reaction. The absorbance was measured at 450 nm using a microplate reader (Perkin Elmer, Victor X5).

EC50 (read off the curve) | Binder
~30 pM | B7

molecular target: T3, mouse OX40 (ACRO, Cat. OX0-M5259); assay: ELISA, mouse OX40 coated at 0.5 ug/ml, serially diluted antibody, goat anti-human Fab secondary antibody, O.D. 450 nm
Procedure: as §3

binding result | Binder
no binding (tested: about 25000 pM) | B2

molecular target: T2, human OX40 protein (Sino Biological, …); assay: ELISA, human OX40 protein coated at 0.1 ug/ml, antibody diluted 4-fold from 100 nM, HRP secondary antibody, O.D. 450 nm
Procedure: as §5, §6

EC50 (read off the curve) | Binder
~200 pM | B1
~30 pM | B2
~5 pM | B4
~1 pM | B5
~6 pM | B6
